From patent US20110271408A1 (University of California, published 2011)

Molecular target: T1, HAB1-GAL4 AD (Gal4 activation domain (AD)-PP2C fusion protein encoded by pAD-HAB1) (UniProt Q9CAJ0 1-511, limits assumed)
T1 construct: Prey of the yeast two-hybrid assays; also called HAB1-AD
T1 sequence (looked up): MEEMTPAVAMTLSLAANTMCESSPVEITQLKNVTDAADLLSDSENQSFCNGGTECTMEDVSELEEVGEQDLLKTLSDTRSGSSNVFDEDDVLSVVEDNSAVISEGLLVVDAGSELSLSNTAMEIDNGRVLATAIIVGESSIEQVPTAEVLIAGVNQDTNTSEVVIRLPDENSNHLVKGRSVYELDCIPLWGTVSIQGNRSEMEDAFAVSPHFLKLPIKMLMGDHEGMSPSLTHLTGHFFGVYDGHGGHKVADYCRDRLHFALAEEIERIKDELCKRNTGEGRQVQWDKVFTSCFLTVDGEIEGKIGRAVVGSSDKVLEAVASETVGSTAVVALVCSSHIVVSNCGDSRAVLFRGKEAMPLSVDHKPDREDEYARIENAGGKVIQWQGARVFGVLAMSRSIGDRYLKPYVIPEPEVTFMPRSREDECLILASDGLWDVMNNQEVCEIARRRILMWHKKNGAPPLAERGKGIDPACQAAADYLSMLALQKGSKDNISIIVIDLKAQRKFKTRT
Experiment: yeast two-hybrid X-gal staining on increasing concentrations of fenhexamid (Y190 pAD-HAB1)

binding result: no binding
B1: PYL2 K64R, Y124H, M164I mutant, GAL4 BD fusion (pBD-PYL2) (receptor)
chain: MSSSPAVKGLTDEEQKTLEPVIKTYHQFEPDPTTCTSLITQRIHAPASVVWPLIRRFDNPERYRHFVKRCRLISGDGDVGSVREVTVISGLPASTSTERLEFVDDDHRVLSFRVVGGEHRLKNHKSVTSVNEFLNQDSGKVYTVVLESYTVDIPEGNTEEDTKIFVDTVVKLNLQKLGVAATSAPMHDDE
